Measurements as given in the supplement of paper PMC9170038.

System: MS2 coat protein
Assay: apparent KD of MS2 coat protein; designed switch direction (-1 OFF switch, 1 ON switch): -1; higher = weaker reporter binding
Method in brief: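 The buffer was Tris-HCl pH 7.5 with KCl, MgCl2, BSA, DTT, tRNA and Tween-20. In it, SNAP-549-labelled MS2 coat protein was titrated in doubling steps from 0.7 or 1.5 nM to 3 µM over chip-bound RNA switches transcribed by stalled E. coli RNA polymerase on Illumina chips. Apparent KD is the per-design median over clusters of curve fits to normalised fluorescence.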

[1] = Eterna round: R95, input ligand: FMN 200 uM
[2] = Eterna round: R95, input ligand: microRNA oligo, concentration not stated
[3] = Eterna round: R95, input ligand: none
[4] = input ligand: microRNA oligo, concentration not stated

| Sequence | apparent KD of MS2 coat protein [1] [nM] | apparent KD of MS2 coat protein [2] [nM] | apparent KD of MS2 coat protein [3] [nM] | apparent KD of MS2 coat protein [4] [nM] | apparent KD of MS2 coat protein (input ligand: FMN 200 uM) [nM] | apparent KD of MS2 coat protein (input ligand: none) [nM] |
| --- | --- | --- | --- | --- | --- | --- |
| UAGUAGCAAGGAUAUACAGAGGAGAGGAUUGCAAGAGGUGGACAUGAGGAUCACCCAUGUAGAAGGUGCAGAGA [JR_Exclu2_Sub021] (puzzle: Exclusion 2) | 310 | 275 | 362 | – | – | – |
| ACAUGAGGAUCACCCAUGUUUUUUGGGUACUUUUGUUUCUGCAAGGAUAUGCAUUAUUUAUAUACGCAGAAGGUGCAUUACUUC [JR_ExcNG3_Sub061] (Eterna round: R96, puzzle: Exclusion NG 3) | – | – | – | 501 | – | – |
| AAAUAGCAAGUUUGAUCCUACAUGAGGAUCACCCAUGUGUUCGUCUUAUUUGAAGACAACACAAAAGUGUUGUCUUA [Omei Mir OFFv1 B1] (Eterna round: R97, puzzle: Sensor, turn-off variant 1) | – | – | – | – | 1100 | 1300 |
| AAACAGGAAGGAUAUACAUUAUCGGAUCUUCUGGCAAUGCCACAUGAGGAUCACCCAUGUAGAAGGUCCAAAUU [Isenona] (puzzle: Exclusion 2) | – | 12.7 | – | – | – | – |
| GGCCUUCCGCAAGCUUUUUACAUGAGGAUCACCCAUGUGAUUUUUAGUCUUAUGCCCGGGCCCGUGUGGGCCCGGGC [-34.8, -55.6, A 14%] (Eterna round: R97, puzzle: Sensor, turn-off variant 1) | – | – | – | – | 23.4 | 23.1 |
| UCAGGUGCAGGAUAUACAUGAGGAUCACCCAUGUGAUUAGCAGUCCUCGGACUGCAAUGUAGAAGGGCACCUGA [E3/2-D2] (Eterna round: R97, puzzle: Exclusion 3) | – | – | – | – | 763 | 346 |
| CACAUGAGACGGAGAUCCAACAUGAGGAUCACCCAUGUCUCAAAAGCUUUUUGCUUGUCUUAUCCUCCUCUCGUGAC [Mat - Sensor, turn-off var - Eli Mod - D61] (Eterna round: R97, puzzle: Sensor, turn-off variant 1) | – | – | – | – | 47.8 | 46.7 |
| UUUAAUUUUUUUUUUUUACAAGCUUUUUGCUCGUCUUAUACAUGAGGAUCACCCAUGUGAGUGGAGGAUAAAUUAUC [JMF 34] (puzzle: Sensor v3, turn-off variant 2) | 19.4 | 29.2 | 20.4 | – | – | – |
| ACAUGAGGAUCACCCAUGUUUGGCUGGUUUUCUCCGGCUGUCGAGGAUAUAGUACGGUAUCCGCGCUAGAAGGUGAGGGUCGGC [Aenatbe mod 2] (Eterna round: R96, puzzle: Exclusion NG 3) | – | – | – | 12.2 | 17.1 | 19 |
| CGGCAAAGGUAGGAUAUGCUAGACGAUAGUCUAGCAGAAGGACCUACAUGAGGAUCACCCAUGUGUCCAAGCCG [Mat - Exclusion 6 - Eli Mod - D19] (Eterna round: R97, puzzle: Exclusion 6) | – | – | – | – | 27.9 | 105 |
| ACAUGUCAUUGAGGAUAUUGCAAACAUGAGGAUCACCCAUGUAUACGGAUGCUCUUACGUGGGUUCGAGAAGGCGAUGUACAUU [Ex NG2 #92] (Eterna round: R96, puzzle: Exclusion NG 2) | – | – | – | 345 | 819 | 429 |
| UUAAAUCAUGUAGGAUAUGCGUGGCGAAGCUAUGCAGAAGGACAUGAGGAUCACCCAUGUUCCUGCGUCCGCGUACGGAUGCAA [JL Eng1 1.21 mod] (Eterna round: R96, puzzle: Exclusion NG 1) | – | – | – | 16.3 | 167 | 18.1 |
| CGUCAGAUCGCAGGAUAUGUUAGAUGAGCACAGAAUGUCCAGACCACAUGAGGAUCACCCAUGUAACAGAAGGGCGGUCUACGG [Eternabot solution 29] (Eterna round: R96, puzzle: Exclusion NG 2) | – | – | – | 195 | 79.3 | 95.6 |
| UUUUAACAUGAGGAUCACCCAUGUGAGGAUAUCGAAAUUUAUAUUUAUAUUAAUAUUACGAGAAGGCACAUUUU [JMF 82] (puzzle: Exclusion 1) | – | 89.6 | – | – | – | – |
| GUGUAGAUAGGAUAUGCUGGAAUCUAGCGAAGCUAGGUUCUACAUGAGGAUCACCCAUGUAGAAGGGUCUACAC [Dot plot directed A v12] (puzzle: Exclusion 2) | – | 28.5 | – | – | – | – |
| CAGCGAUCAGGAUAUACAUGAGGAUCACCCAUGUGUUCCAGCUAGGAAACUAGCAAAUGUAGAAGGGAUCGCUG [jl-ex3-4.00 salish99 mod] (Eterna round: R97, puzzle: Exclusion 3) | – | – | – | – | 32.2 | 346 |
| GUAACAACUAGAGGAUAUCAGCACGAUUAGUGCUGAGAAGGCUAGAGUUACAUGAGGAUCACCCAUGUCUAGAGAUCAUUAAUU [ENG1/13-A1] (Eterna round: R96, puzzle: Exclusion NG 1) | – | – | – | 53.2 | 155 | 79.7 |
| GAAAAGGUAGGAUAUACGAUAAGAAAGGGUAGAUAAUAAACACAUGAGGAUCACCCAUGUAGAAGGACCAAAAG [salish99_ex2_r3_102] (puzzle: Exclusion 2) | 139 | 35.4 | 39.7 | – | – | – |
| UCCUUACUGGUCAGGAUAUACAGUCGCGGGUGGGUGUAGAAGGGACAUGAGGAUCACCCAUGUACGUUACAGCC [alecazam54i] (Eterna round: R97, puzzle: Brourd's mod of Exclusion 4) | – | – | – | – | 27.6 | 30.2 |
| AGUAACCGUCACGAAAGUGAUGGUUACACAAGCAAUGAAACAUGAGGAUCACCCAUGUCCUCAUUUGCUCGUCUUAU [Sensor 3 - 40] (puzzle: Sensor v3, turn-off variant 2) | 25.5 | 486 | 26.8 | – | – | – |
| CUUAGACAUGAGGAUCACCCAUGUGAGGAUAUGAUGCGAUCGUGCUGACAUGAUCGCAUCAGAAGGCACAAAUG [Mat - Mod of JL D65] (puzzle: Exclusion 1) | – | 146 | – | – | – | – |
| UAUUAACAAGCAAGAUCCCACAUGAGGAUCACCCAUGUGCUCGUCUUGUAAGGUACUGUGACGAAAGUCACGGUACC [Sensor 3, v1 - 84] (puzzle: Sensor v3, turn-off variant 1) | 13.9 | 41 | 13.4 | – | – | – |
| UUUUAACAUGAGGAUCACCCAUGUGAGGAUAUCAUUUUUUUUUUUUUUUUUUUUUUUUUGAGAAGGCACAUUUU [My solution] (puzzle: Exclusion 1) | 11.9 | 37 | 14.2 | – | – | – |
| UUUAUGCUAGGAUAUGCACCCUCGAACAUGAGGAUCACCCAUGUACAAUAAACGCAUGGAGCAGAAGGAGCUCCGA [EX5 A.5] (Eterna round: R97, puzzle: Exclusion 5) | – | – | – | – | 203 | 86.7 |
| AUCAUGUAAGGAUAUCGUGCAAGUUUCAAAAGAGGCUUGUGCGAGAAGGUACAUGAGGAUCACCCAUGUAGGUU [Omei Ex4 B10] (Eterna round: R97, puzzle: Exclusion 4) | – | – | – | – | 57.8 | 584 |
| CAACAUGGACCUCGCUCCGACAUGAGGAUCACCCAUGUUGGAACCUUACUGGCGUCGAGUGUUGCUCGUCUUACCGU [Eternabot (Original) Solution 10] (Eterna round: R97, puzzle: Sensor, turn-off variant 1) | – | – | – | – | 189 | 268 |
